Residue numbers refer to the chain shown, from its start. Where “and” joins values, the source holds several entries; their conditions need not be identical. Equal values may be shown once.
How the values were obtained:
[1] = target: T1, Receptor binding domain (Neil King, University of Washington) (SARS-CoV-2, UniProt P0DTC2 328-531)
[2] = target: RBD domain of the SARS-CoV-2 spike protein (Acro Biosystems SPD-C52H3), His tag (SARS-CoV-2, UniProt P0DTC2 319-537)
[3] = target: SARS-CoV-2 spike protein receptor binding domain (isolated RBD) (SARS-CoV-2, UniProt P0DTC2 319-541); experiment: SPR (Biacore 8K), IgG1 captured via anti-hFc, RBD as analyte, 1:1 fit
[4] = target: SARS-CoV-2 spike protein receptor binding domain (RBD) (SARS-CoV-2, UniProt P0DTC2 319-541); experiment: HT-SPR (Carterra LSA); IgG captured by anti-human Fc, RBD as analyte, 1:1 fit
[5] = target: SARS-CoV-2 S2 spike domain (Sino Biological) (SARS-CoV-2, UniProt P0DTC2 686-1213)
[6] = target: SARS-CoV-2 spike protein trimer, wild type (FIG. 2A sequence) with C-terminal trimerisation domain (SARS-CoV-2, UniProt P0DTC2 14-1213)
[7] = target: T1, Receptor binding domain (Neil King, …); experiment: SPR (Biacore 8K), antibody captured by anti-hFc, RBD as analyte
[8] = target: SARS-CoV-2 spike protein on live virus SARS-CoV-2 Victoria/01/2020 (SARS-CoV-2, UniProt P0DTC2 14-1273); experiment: cell-based or functional assay

B1: IMPI-055 (antibody, V domains shown)
VH: QVQLVQSGAEVKKPGASVKVSCKASGYTFTSYDINWVRQATGQGLEWMGWMNPNSGNTGYAQKFQGRVTMTRDTSINTAYMELSSLRSEDTAVYFCARGGRYCSDVTCYSGEPFDYWGQGTLVTVSS
VL: EIMLTQSPDFQSVTPKEKVTITCRASQSIGSSLHWYQQKPDQSPKLLIKFASQSISGVPSRFSGSGSGTDFTLTINSLEAEDAAAYYCHQSSSLPHTFGPGTKVEIK
- Kd [1]: < 1 nM

B2: IMPI-002 (antibody, V domains shown)
VH: EVQLVESGGGLIQPGGSLRLSCAASGVTVSSNYMSWVRQAPGKGLEGVSVIYSGGSTYYADSVKGRFTISRDNSKNTLYLQMNSLRAEDTAVYYCARDTVVYGMDVWGQGTTVTVSS
VL: DIQLTQSPSFLSASVGDRVTITCWASQGISSYLAWYQQKPGKAPKLLIYAASTLQSGVPSRFSGSGSGTEFTLTISSLQPEDFATYYCQQLNSYPLTFGGGTKVEIK
- HTRF deltaF [2]: 172 deltaF

B3: IMPI-052 (antibody, V domains shown)
VH: B2 VH with S35N, S56T
VL: B2 VL with A50T
- HTRF deltaF [2]: 229 deltaF

B4: IMPI-052 (antibody, V domains shown)
VH: B2 VH with S35N, S56T
VL: B2 VL with A50T
- Kd [3]: 13.2 nM

B5: IMPI-052 (antibody, V domains shown)
VH: B2 VH with S35N, S56T
VL: B2 VL with A50T
- Kd [4]: 24.1 nM

B6: IMPI-063 (antibody, V domains shown)
VH: EVQLVESGGGVVRPGGSLRLSCAASGFTFDDYGMSWVRQAPGKGLEWVSGIYWNGGSTGYADSVKGRFTISRDNAKNSLYLQMNSLRAEDMALYYCARGVGATDYWGQGTLVTVSS
VL: EIVLTQSPGTLSLSSGERATLACRASESVRGSFLAWYQQKPGQAPRLLIYGASRRATGIPDRFSGSGSGTDFTLTISRLEPEDFAVYYCQQYGNSPMCSFGQGTKLEIK
- Kd [5]: 0.845 nM
- koff [5]: 7.77 s⁻¹
- kon [5]: 9.19e+09 M⁻¹ s⁻¹
- Kd [6]: 2.29 nM
- koff [6]: 0.000939 s⁻¹
- kon [6]: 411000 M⁻¹ s⁻¹

B7: IMPI-063 (antibody, V domains shown)
VH: B6 VH
VL: B6 VL
- binding result [7]: no binding (tested: up to 100 nM analyte)

B8: IMPI-059 (antibody, V domains shown)
VH: EVQLVESGGGLIQPGGSLRLSCAASGFTVSSIYMSWVRQAPGKGLEWVSIIYSRGSTDYADSVKGRFTISRDISKNTLYLQMNSLRAEDTAVYYCARDGTMVRGVHAFDIWGQGTMVTVSS
VL: DIQMTQSPPSLSASIGDRVTITCQASQDISNYLNWYQQKPGKAPKLLIYDASNLETGVPSRFSGSGSGTDFTLTISNLQPEDIVTYYCQQYDNLPSSFGQGTKLEIK
- IC50, live virus foci (plaque) reduction neutralisation assay on Vero cells [8]: 0.026 nM
- Kd [1]: < 1 nM

B9: IMPI-004 (antibody, V domains shown)
VH: QVQLVESGGGVVQPGRSLRLSCAASGFTFSSYGMHWVRQAPGKGLEWVAVIWYDGGNKYYADSVKGRFTISRDNSKNTLYLQMNSLRAEDTAVYYCARVNVLMGYGMDVWGQGTTVTVSS
VL: EIVLTQSPGTLSLSPGDKATLSCRASQSIISSFLAWYQQKPGQAPRLLIYGASSRATGIPDRFSGSGSGTDFTLTISRLEPEDFAVYYCQQYGSSLTFGGGTKVEIK
- IC50, live virus foci (plaque) reduction neutralisation assay on Vero cells [8]: 13 ng/ml and 86 pM

B10: IMPI-013 (antibody, V domains shown)
VH: EVQLVESGGGLVQPGRSLRLSCAASGFTFDDYAMHWVRQTPGKGLEWVSGISWNSGSIGYADSVKGRFTISRDNAKNSLYLQMNSLRAEDTALYYCTKDLGLGIGFYYGLDVWGQGTTVTVSS
VL: AIQMTQSPSSLSTSVGDRVTITCRASQGIRNDLGWYQLKPGKAPKLLIYDASTLQSGVPSRFSGSGSGTDFTLTISSLEPEDLATYYCLHHYTYPWTFGHGTKVELK
- Kd [5]: 0.126 nM
- Kd [6]: 0.67 nM

B11: IMPI-013 (antibody, V domains shown)
VH: B10 VH
VL: B10 VL
notes: also called IMP-013
- binding result [7]: no binding (tested: up to 100 nM analyte)

B12: IMPI-006 (antibody, V domains shown)
VH: QLQLQESGPGLVKPSETLSLTCTVSGGSISNSNYYWGWIRQPPGKGLEWIGSIYYSGRTYYNPSLKSRVTISVDTSKNQFSLKLSSVTAADTAVYYCARMGLLWFGEFYGMDVWGQGTTVTVSS
VL: DIQMTQSPSSLSASVGDRVTITCRASQGISSWLAWYQQKPEKAPKSLIYDASSLQRGVPSRFSGSGSGTDFTLTISSLQPEDFASYYCQQYNSYPLTFGGGTRVEIK
- Kd [1]: < 1 nM

— US20250026813A1 (published 2025)
